# Measurements from US12241094B2, “Phenazine degrading agents and related compositions, methods and systems for interfering with viability of bacteria” (priority 2016, dated 2025).
# Entries after “also recorded” stand apart in the source; their conditions may differ.
# B1: PodA30-162: truncated pyocyanin demethylase encoded by MFORT_14352 of Mycobacterium fortuitum lacking N-terminal helix, SEQ ID NO: 2 (protein, listed as Mycobacterium fortuitum)
# chain: MDGRGGRSTTEPVTMTLDVKNDQVAKHDFGKPGMDVGDMDIFSDILSVDGKQVGYDGGACFFTNVTPDNPMTYCELTIHLDAGEIFARSLTPHTLAPFTMAITGGTGEYANSKGELTVSGVATPDEKYELKLTKAENLYFQ
# Key:
# [1] = system: P. aeruginosa PA14 biofilms; assay: Biofilm formation, surface coverage (chambered coverglass, DAPI); format: cell-based; conditions: for biofilm surface coverage: 5 hours
# Experimental: Biofilm experiments. For all experiments involving inactivated PodA, either the E154A mutant or PodA30-162 that was subjected to a 1 hour treatment at 98° C. was used. To test the ability of PodA30-162 to degrade PYO in the presence of DNA, genomic DNA (gDNA) from P. aeruginosa PA14 was used in modified versions of previously described assays (59). For experiments using DNA pellets, 0.5 mg of gDNA was pelleted in the presence of 300 mM sodium acetate, pH 5.2 and 70% ethanol. Pellets were washed with 70% ethanol and dried. 200 μL of 800 μM PYO was added to the gDNA pellet without mixing and left to sit at room temperature for 6 hours to allow for diffusion of PYO into the gDNA pellet. The pellet was washed once with 70% EtOH, and submerged in a solution containing 10 mM Tris, pH 7.0 and 40% isopropanol. The pellet remained blue, consistent with an association of PYO with DNA. PodA30-162 was added to the isopropanol solution to a final concentration of 2 μg mL^−1 and left to sit for 3 hours to allow for the reaction to proceed. Tubes were imaged before and after PodA30-162 treatment. For experiments using solubilized gDNA, a 400 μg mL^−1 solution of gDNA was mixed with PYO and allowed to equilibrate for 6 hours. The PYO gDNA mixture was amended with 1 μg mL^−1 PodA30-162 and loss of PYO was monitored on a BioTek Synergy 4 microplate reader (BioTek) plate reader at 690 nm. Standards were included to quantify PYO loss over time. To assess biofilm formation in the presence of PodA30-162, biofilms were grown in Nunc Lab-Tek chambered coverglass slides (8-well, 0.8 cm^2 area, supplier #155411) using a modified protocol (22). PA14 was inoculated into succinate minimal medium and grown overnight to stationary phase. Cells were resuspended in fresh medium and diluted to a starting OD500 of 0.5 in succinate minimal medium. PodA30-162 (2 μg mL^−1, final concentration) or DNase (20 μg mL^−1) (22) was added and 250 μL was added to each well of the 8-well chambered coverglass. Cultures were grown for 5 hours at 37° C. and 100 rpm (Innova 44 shaking incubator, New Brunswick) in a humidified chamber. After incubation, liquid was removed from each well by drawing with a pipet tip placed in the corner of each well and chambers were washed twice with 400 μL of biofilm wash (Tris buffer, pH 7.6 and 100 mM NaCl) to remove planktonic and loosely bound cells. Attached biomass was stained by adding 450 μL biofilm wash containing 10 μg mL^−1 DAPI (4′,6-diamidino-2-phenylindole) (Santa Cruz Biotechnology). Surface associated biomass was imaged on a Leica TCS SPE confocal microscope with a ACS APO 40×/1.15 oil immersion objective. A 405 nm solid-state laser was used for excitation, and data was collected from 420-500 nm. […]
# [2] = PYO demethylation in the presence of DNA; format: biochemical; conditions: gDNA pellet, 2 μg mL^−1, 3 hours
# Experimental: Biofilm experiments. For all experiments involving inactivated PodA, either the E154A mutant or PodA30-162 that was subjected to a 1 hour treatment at 98° C. was used. To test the ability of PodA30-162 to degrade PYO in the presence of DNA, genomic DNA (gDNA) from P. aeruginosa PA14 was used in modified versions of previously described assays (59). For experiments using DNA pellets, 0.5 mg of gDNA was pelleted in the presence of 300 mM sodium acetate, pH 5.2 and 70% ethanol. Pellets were washed with 70% ethanol and dried. 200 μL of 800 μM PYO was added to the gDNA pellet without mixing and left to sit at room temperature for 6 hours to allow for diffusion of PYO into the gDNA pellet. The pellet was washed once with 70% EtOH, and submerged in a solution containing 10 mM Tris, pH 7.0 and 40% isopropanol. The pellet remained blue, consistent with an association of PYO with DNA. PodA30-162 was added to the isopropanol solution to a final concentration of 2 μg mL^−1 and left to sit for 3 hours to allow for the reaction to proceed. Tubes were imaged before and after PodA30-162 treatment. […] The PYO gDNA mixture was amended with 1 μg mL^−1 PodA30-162 and loss of PYO was monitored on a BioTek Synergy 4 microplate reader (BioTek) plate reader at 690 nm. Standards were included to quantify PYO loss over time. […]
# [3] = system: Pa PA14 biofilm transcriptome; assay: RNASeq transcriptome of biofilm cultures; format: cell-based, P. aeruginosa; conditions: 5 h
# Experimental: Because 1-OH-PHZ induces iron starvation in A. fumigatus (Briard et al. (2015) Scientific Reports. 2015; 5), it was speculated that the abrogation of biofilm development in P. aeruginosa grown in the presence of either PodA or 1-OH-PHZox may be mediated by a response to Fe-limitation. To test this idea, changes to the transcriptome of Pa PA14 by RNASeq were assessed. After 5 h of incubation in the presence of PodA (1 μM), 1-OH-PHZ (200 μM) or PYO (200 μM), RNA was prepared from 1 ml of biofilm cultures (250 μl pooled from 4 static biofilm chambers) for analysis on an Illumina HiSeq 2500 sequencer at the Millard and Muriel Jacobs Genetics and Genomics Laboratory, as previously described (Babin et al. (2016) Proc Natl Acad Sci USA. 113(5):E597-E605; Kreamer et al. (2015) M Bio. 2015; 6(2):e02549. Epub 2015/02/26). This experiment was designed to identify genes that were likely to be specifically affected by PodA's transformation of PYO to 1-OH-PHZ under a condition that inhibited biofilm formation (FIG. 20A). As a reference for genes responsive to iron availability, these transcriptomes were compared to those previously found to respond to Fe(II) shock (Kreamer et al. (2015) M Bio. 2015; 6(2):e02549. Epub 2015/02/26).
molecule,measurement,setting,value
B1,biofilm surface coverage,"[1]; PodA30-162 2 μg mL^−1, DNase 20 μg mL^−1, vs. PodA-inactive",reduced; also recorded: lower
same,biofilm surface coverage,"[1]; representative images, 82.7 percent in the absence of PodA30-162",43.5%
same,phenazines in biofilm supernatants by HPLC,[1]; after 5 hours of growth,conversion of PYO to 1-OH-PHZ
same,demethylation of PYO associated with precipitated DNA,[2],not protected
same,expression of small gene cluster incl. QapR regulon,[3],upregulated modestly
same,"log(2) changes relative to untreated control, metal scavenging and starvation response genes (FIG. 21A)","[3]; PodA 1 μM, 1-OH-PHZ 200 μM, PYO 200 μM",~0 log(2)
